Data: patent US9664676B2, “RNA sequences that induce fluorescence of small molecule fluorophores” (Cornell University, priority 2013, dated 2017)

Columns and labels:
[1] = Thermostability measurements of Spinach RNAs with DFHBI; assay type: physicochemical; conditions: fluorescence of RNA-DFHBI complex in vitro, 20-60 °C; ±s.e.m.
Description: Thermostability Measurements: Spinach or Spinach2 (1 μM) was incubated in 20 mM HEPES pH 7.4, 100 mM KCl, 1 mM MgCl2 and 10 μM DFHBI. Fluorescence values were recorded in 1° C. increments from 20° C. to 60° C., with a 5-min incubation at each temperature to allow for equilibration. Fluorescence measurements were performed using a PerkinElmer LS-55 fluorescence spectrometer using the following instrument parameters: excitation wavelength, 460 nm; emission wavelength, 501 nm; slit widths, 10 nm. Curves were fitted using the Boltzmann sigmoidal equation in GraphPad Prism 5 software. Values presented are mean and s.e.m. from three independent measurements.

[2] = In vitro fluorescence (brightness) of Spinach RNAs, mutants and flanked/fused constructs with DFHBI; assay type: biochemical; conditions: for fold brighter than the same construct fused to Spinach: in vitro
Excerpt: Preparation and Analysis of Spinach and Spinach Mutants: RNAs were created by using the appropriate single-stranded DNA templates (Integrated DNA Technologies) and PCR amplification using primers that included a 5′ T7 promoter sequence to generate double-stranded DNA templates. PCR products were then purified with PCR purification columns (Qiagen) and used as templates for in vitro T7 transcription reactions (Epicentre) as described previously (Paige et al., “RNA mimics of green fluorescent protein,” Science 333: 642-646 (2011), which is hereby incorporated by reference in its entirety). RNA was purified using ammonium acetate precipitation, and quantified using both absorbance values and the Riboquant Assay kit (BD Biosciences). Photophysical characterization of Spinach2 was carried out as previously described (Paige et al., “RNA mimics of green fluorescent protein,” Science 333: 642-646 (2011), which is hereby incorporated by reference in its entirety).
Preparation and In Vitro Analysis of Flanked Spinach and Spinach2 Constructs: Spinach and Spinach2 constructs flanked on either side by 50 base pairs were generated by PCR. For Spinach, the following primers were used:
The 50-base-pair sequences were taken from the human β-actin 3′ untranslated region. Both forward primers encode the T7 RNA polymerase promoter for in vitro transcription. 5S-Spinach and 5S-Spinach2 were amplified by PCR from pAV-5S-Spinach and pAV-5S-Spinach2, respectively, using the following primers: […]
PCR products were used as templates for in vitro transcription by Ampliscribe T7 RNA polymerase as previously described (Paige et al., “RNA mimics of green fluorescent protein,” Science 333: 642-646 (2011), which is hereby incorporated by reference in its entirety). Fluorescence measurements were recorded for 0.1 μM RNA in the presence of 10 μM DFHBI in buffer composed of 20 mM HEPES pH 7.4, 100 mM KCl and […] as described above.
Next, systematic mutagenesis was carried out to identify thermostable Spinach mutants with improved folding. Because elevated G+C content can lead to stable misfolded structures (Kiliszek et al., “Crystal Structures of CGG RNA Repeats with Implications for Fragile X-Associated Tremor Attaxia Syndrome,” Nuc. Acids Res. 39:7308-7315 (2011); Sobczak et al., “RNA Structure of Trinucleotide Repeats Associated with Human Neurological Diseases,” Nuc. Acids Res. 31:5469-5482 (2003), each of which is hereby incorporated by reference in its entirety), it was reasoned that decreasing the overall G+C content could promote proper folding. Scanning mutagenesis was carried out, mutating every […] and cytosine to adenosine or uracil, respectively. In regions where G and C residues were predicted to form a base pair, both residues were mutated to A and U, to maintain the complementarity. Each of these 35 mutants was synthesized in vitro, and the fraction folded was measured at 25° C. and 42° C. Fluorescence signals that were equal to or greater than Spinach at 25° C. indicated equal or greater percent folded. A higher percentage signal at 42° C. indicated improved thermostability relative to Spinach.

[3] = Magnesium dependence of aptamer fluorescence; assay type: physicochemical
Description: To measure magnesium dependence 1 μM RNA was incubated with 10 μM 1T in 40 mM HEPES pH 7.4, 100 mM KCl buffer with different concentrations of MgCl2 and then fluorescence emission was measured on a plate reader.

[4] = Folding assay (fraction of RNA folded, DFHBI); assay type: physicochemical
Description: Folding Assay: The folding assay involves measurement of fluorescence under two conditions, one in which RNA is in excess relative to DFHBI, and one in which the DFHBI is in excess relative to RNA. As Spinach and DFHBI form a 1:1 stoichiometric complex, the maximum amount of complex that can be formed is determined by the limiting component. In the first condition, the fluorescence was determined by incubation of 0.1 μM DFHBI and 100-fold excess (10 μM) Spinach. This value was used to define the fluorescence of 0.1 μM Spinach-DFHBI complex. It was assumed that even if nearly all Spinach is misfolded or unfolded, there will be enough properly folded Spinach to stoichiometrically bind 0.1 μM DFHBI. This was confirmed by measuring fluorescence after doubling the RNA to 20 μM, which caused no increase in fluorescence. In the second condition, the fluorescence obtained using 10 μM DFHBI and 0.1 μM Spinach was measured. In theory, up to 0.1 μM Spinach-DFHBI can form if all the Spinach is folded. However, if a portion of Spinach is unfolded, the fluorescence will be proportionately less than the fluorescence of 0.1 μM Spinach-DFHBI. Thus, this approach can reveal the fraction of Spinach that is folded under diverse conditions.
Fluorescence was measured for each RNA under the following conditions: (i) 0.1 μM RNA and 10 μM DFHBI, and (ii) 0.1 μM DFHBI and 10 μM RNA. For each condition, the signal from DFHBI without RNA was subtracted from each signal. Fluorescence was measured in 20 mM HEPES pH 7.4, 100 mM KCl and 1 mM MgCl2 at the designated temperature. Fluorescence measurements were performed using a PerkinElmer LS-55 fluorescence spectrometer using the following instrument parameters: excitation wavelength, 460 nm; emission wavelength, 501 nm; slit widths, 10 nm. Signal from the first condition (limiting RNA) was divided by the signal from the second condition (limiting dye) to determine the fraction folded.

E. coli = assay: Whole-cell fluorescence measurements of E. coli expressing Spinach or Spinach2; assay type: cell-based, Escherichia coli
Description: Cloning Spinach2 for Expression in E. coli: Spinach and Spinach2 were PCR-amplified with primers containing the EagI restriction sites on both the 5′ and 3′ ends of the Spinach sequence.
Whole-Cell Fluorescence Measurements of E. coli: BL21 cells were transformed to harbor either pET28c-tRNA-Spinach or pET28c-tRNA-Spinach2, and grown in Luria broth with 100 μg/ml kanamycin to OD600 0.4 at room temperature. The cells were then induced with addition of 1 mM IPTG for 2 h at room temperature. After induction, cells were normalized for cell density and split into two aliquots. One aliquot per sample was incubated at room temperature, and the other was incubated for 20 min at 37° C. Cells were then measured for total fluorescence using a Tecan Safirell plate reader with 460±10 nm excitation and emission was recorded at 510±10 nm. Data shown represent mean and s.e.m. values for three independent experiments.

B1: Spinach2: RNA aptamer SEQ ID NO: 2; Spinach1.2 variant containing all six mutations (nucleic acid)
chain: GAUGUAACUGAAUGAAAUGGUGAAGGACGGGUCCAGUAGGCUGCUUCGGCAGCCUACUUGUUGAGUAGAGUGUGAGCUCCGUAACUAGUUACAUC
modifications: listed as RNA, chemistry not given here
notes: Spinach1.2 variant containing all six mutations
melting temperature (Tm) [1]: 38±0.4 °C | fluorescence retained when fused to the CGG repeat-containing RNA [2]: 80% | fold brighter than Spinach in vitro ([2]; 25 °C): 1.8 fold | fold brighter than Spinach in vitro ([2]; 37 °C): 2.8 fold | brightness of flanked RNA relative to the same aptamer alone ([2]; flanked by 50 nt of RNA on both 5′ and 3′ ends, 0.1 μM RNA): 90% | brightness of flanked Spinach2 versus flanked Spinach ([2]; flanked by 50 nt of RNA on both ends): tenfold brighter than flanked Spinach | fold brighter than the same construct fused to Spinach ([2]; fusion with 5S RNA): 3 fold | fold brighter than the same construct fused to Spinach ([2]; fusion with 7SK RNA): 6 fold | fold brighter than the same construct fused to Spinach ([2]; fusion with (CGG)60 RNA): 20 fold | fluorescence retained by tagged Spinach2 relative to Spinach2 alone ([2]; fusions with 5S, 7SK and (CGG)60 RNA, all cases): more than 70% | Percent Brightness (at 42° C.) ([2]; percent of signal remaining at 42 °C for a given mutant): 41% | Relative Brightness (at 25° C.) ([2]; relative to Spinach, 25 °C): 1.8 | percent of maximal fluorescence in magnesium-free buffer ([3]; 1 μM RNA, 10 μM DFHBI-1T): 11% | magnesium concentration giving maximal fluorescence ([3]; MgCl2 titration): ~1 mM | percent of maximal fluorescence at ~300 μM magnesium ([3]; MgCl2 titration): 50% | percentage folded ([4]; 25 °C, in the presence of the tRNA (tRNA^Lys3 scaffold)): 80±6.1% | percentage folded ([4]; 25 °C, no tRNA scaffold): 58±4.8% | percentage folded ([4]; 37 °C, in the presence of the tRNA (tRNA^Lys3 scaffold)): 60±5.4% | percentage folded ([4]; 37 °C, no tRNA scaffold): 37±3.3% | fold brighter than Spinach in Escherichia coli (E. coli; 25 °C): 1.4 fold | fold brighter than Spinach in Escherichia coli (E. coli; 37 °C): 2.1 fold
